Laboratory results from the supplement of paper PMC10567573.

B1: MYBL2 (parent)
chain: VKKSCWTEEEDRIICEAHKVLGNR

Variants of: B1
Assay: protein stability index of a GFP-peptide fusion (GPS, HEK-293T) (PSI 1-6); higher = more stable
Conditions: c terminus: a fixed tail appended
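Also: lentivirally expressed fusions sorted by FACS into six bins by GFP to DsRed ratio, PSI derived from sequencing read proportions per bin multiplied by bin number.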

Variant	protein stability index
VKKSCWTEEEDRIICEAWKVLGNR [H18W]	2.18
VKKSCWTEEEDRIICEAMKVLGNR [H18M]	2.73
VKKSCWTEEEDRIICEAEKVLGNR [H18E]	3.83
VKKSCWTEEEDRIICEAFKVLGNR [H18F]	2.63
VKKSCWTEEEDRIICEANKVLGNR [H18N]	3.88
VKKSCWTEEEDRIICEALKVLGNR [H18L]	2.45
VKKSCWTEEEDRIICEAIKVLGNR [H18I]	2.91
VKKSCWTEEEDRIICEADKVLGNR [H18D]	4.01
VKKSCWTEEEDRIICEAGKVLGNR [H18G]	3.2
VKKSCWTEEEDRIICEACKVLGNR [H18C]	1.8
VKKSCWTEEEDRIICEARKVLGNR [H18R]	2.69
VKKSCWTEEEDRIICEATKVLGNR [H18T]	3.79
VKKSCWTEEEDRIICEAQKVLGNR [H18Q]	3.35
VKKSCWTEEEDRIICEASKVLGNR [H18S]	3.81
VKKSCWTEEEDRIICEAPKVLGNR [H18P]	4
VKKSCWTEEEDRIICEAKKVLGNR [H18K]	3.73
VKKSCWTEEEDRIICEAVKVLGNR [H18V]	2.2
VKKSCWTEEEDRIICEAAKVLGNR [H18A]	3.47
VKKSCWTEEEDRIICEAYKVLGNR [H18Y]	2.56
VKKSCWTEEEDRIICEAHKGLGNR [V20G]	3.67
VKKSCWTEEEDRIICEAHKSLGNR [V20S]	3.55
VKKSCWTEEEDRIICEAHKCLGNR [V20C]	3.84
VKKSCWTEEEDRIICEAHKRLGNR [V20R]	3.59
VKKSCWTEEEDRIICEAHKQLGNR [V20Q]	4.5

Variant	protein stability index
VKKSCWTEEEDRIICEAHKELGNR [V20E]	4.03
VKKSCWTEEEDRIICEAHKPLGNR [V20P]	3.72
VKKSCWTEEEDRIICEAHKFLGNR [V20F]	2.86
VKKSCWTEEEDRIICEAHKDLGNR [V20D]	4.37
VKKSCWTEEEDRIICEAHKILGNR [V20I]	2.75
VKKSCWTEEEDRIICEAHKHLGNR [V20H]	2.55
VKKSCWTEEEDRIICEAHKNLGNR [V20N]	3.99
VKKSCWTEEEDRIICEAHKMLGNR [V20M]	3.15
VKKSCWTEEEDRIICEAHKALGNR [V20A]	3.51
VKKSCWTEEEDRIICEAHKKLGNR [V20K]	3.67
VKKSCWTEEEDRIICEAHKLLGNR [V20L]	3.15
VKKSCWTEEEDRIICEAHKYLGNR [V20Y]	3.12
VKKSCWTEEEDRIICEAHKWLGNR [V20W]	2.04
VKKSCWTEEEDRIICEAHKTLGNR [V20T]	3.34
VKKSCWTEEEDRIICIAHKVLGNR [E16I]	1.84
VKKSCWTEEEDRIICGAHKVLGNR [E16G]	4
VKKSCWTEEEDRIICKAHKVLGNR [E16K]	3.08
VKKSCWTEEEDRIICFAHKVLGNR [E16F]	1.69
VKKSCWTEEEDRIICAAHKVLGNR [E16A]	2.84
VKKSCWTEEEDRIICWAHKVLGNR [E16W]	2.39
VKKSCWTEEEDRIICSAHKVLGNR [E16S]	3.06
VKKSCWTEEEDRIICVAHKVLGNR [E16V]	2.31
VKKSCWTEEEDRIICDAHKVLGNR [E16D]	3.66
VKKSCWTEEEDRIICRAHKVLGNR [E16R]	3.13

Variant	protein stability index
VKKSCWTEEEDRIICMAHKVLGNR [E16M]	1.78
VKKSCWTEEEDRIICYAHKVLGNR [E16Y]	2.32
VKKSCWTEEEDRIICCAHKVLGNR [E16C]	1.94
VKKSCWTEEEDRIICQAHKVLGNR [E16Q]	3.14
VKKSCWTEEEDRIICHAHKVLGNR [E16H]	3.1
VKKSCWTEEEDRIICTAHKVLGNR [E16T]	2.72
VKKSCWTEEEDRIICNAHKVLGNR [E16N]	3.15
VKKSCWTEEEDRIICLAHKVLGNR [E16L]	1.83
VKKSCWTEEEDRIICPAHKVLGNR [E16P]	3.54
VKKSCWTEEEDRIICEDHKVLGNR [A17D]	4.36
VKKSCWTEEEDRIICERHKVLGNR [A17R]	3.51
VKKSCWTEEEDRIICEEHKVLGNR [A17E]	3.49
VKKSCWTEEEDRIICEQHKVLGNR [A17Q]	3.83
VKKSCWTEEEDRIICEHHKVLGNR [A17H]	3.46
VKKSCWTEEEDRIICEKHKVLGNR [A17K]	3.68
VKKSCWTEEEDRIICEFHKVLGNR [A17F]	2.65
VKKSCWTEEEDRIICEIHKVLGNR [A17I]	2.09
VKKSCWTEEEDRIICENHKVLGNR [A17N]	3.88
VKKSCWTEEEDRIICEMHKVLGNR [A17M]	3.03
VKKSCWTEEEDRIICETHKVLGNR [A17T]	2.92
VKKSCWTEEEDRIICEPHKVLGNR [A17P]	3.12
VKKSCWTEEEDRIICESHKVLGNR [A17S]	3.36
VKKSCWTEEEDRIICEVHKVLGNR [A17V]	2.37
VKKSCWTEEEDRIICEGHKVLGNR [A17G]	4.14

Variant	protein stability index
VKKSCWTEEEDRIICECHKVLGNR [A17C]	2.12
VKKSCWTEEEDRIICEYHKVLGNR [A17Y]	2.39
VKKSCWTEEEDRIICELHKVLGNR [A17L]	1.59
VKKSCWTEEEDRIICEWHKVLGNR [A17W]	2.55
VKKSCWTEEEDRIVCEAHKVLGNR [I14V]	3.71
VKKSCWTEEEDRIHCEAHKVLGNR [I14H]	4.29
VKKSCWTEEEDRIRCEAHKVLGNR [I14R]	3.7
VKKSCWTEEEDRIACEAHKVLGNR [I14A]	4.24
VKKSCWTEEEDRIDCEAHKVLGNR [I14D]	3.69
VKKSCWTEEEDRIFCEAHKVLGNR [I14F]	2.91
VKKSCWTEEEDRIQCEAHKVLGNR [I14Q]	4
VKKSCWTEEEDRICCEAHKVLGNR [I14C]	3.3
VKKSCWTEEEDRITCEAHKVLGNR [I14T]	4.39
VKKSCWTEEEDRIECEAHKVLGNR [I14E]	4.24
VKKSCWTEEEDRIGCEAHKVLGNR [I14G]	2.86
VKKSCWTEEEDRILCEAHKVLGNR [I14L]	3.41
VKKSCWTEEEDRIKCEAHKVLGNR [I14K]	4.53
VKKSCWTEEEDRIYCEAHKVLGNR [I14Y]	3.23
VKKSCWTEEEDRISCEAHKVLGNR [I14S]	4.11
VKKSCWTEEEDRINCEAHKVLGNR [I14N]	3.28
VKKSCWTEEEDRIWCEAHKVLGNR [I14W]	3.12
VKKSCWTEEEDRIPCEAHKVLGNR [I14P]	3.67
VKKSCWTEEEDRIMCEAHKVLGNR [I14M]	3.29
VKKSCWTEEEDRIIREAHKVLGNR [C15R]	3.36

Variant	protein stability index
VKKSCWTEEEDRIIFEAHKVLGNR [C15F]	2.79
VKKSCWTEEEDRIIGEAHKVLGNR [C15G]	4.39
VKKSCWTEEEDRIIDEAHKVLGNR [C15D]	4.16
VKKSCWTEEEDRIINEAHKVLGNR [C15N]	3.65
VKKSCWTEEEDRIITEAHKVLGNR [C15T]	3.74
VKKSCWTEEEDRIIIEAHKVLGNR [C15I]	3.47
VKKSCWTEEEDRIIQEAHKVLGNR [C15Q]	3.85
VKKSCWTEEEDRIIPEAHKVLGNR [C15P]	4.16
VKKSCWTEEEDRIILEAHKVLGNR [C15L]	3.82
VKKSCWTEEEDRIIYEAHKVLGNR [C15Y]	3.01
VKKSCWTEEEDRIIWEAHKVLGNR [C15W]	2.59
VKKSCWTEEEDRIIHEAHKVLGNR [C15H]	3.76
VKKSCWTEEEDRIIAEAHKVLGNR [C15A]	3.43
VKKSCWTEEEDRIIEEAHKVLGNR [C15E]	3.94
VKKSCWTEEEDRIIMEAHKVLGNR [C15M]	2.87
VKKSCWTEEEDRIIVEAHKVLGNR [C15V]	3.85
VKKSCWTEEEDRIISEAHKVLGNR [C15S]	3.69
VKKSCWTEEEDRIIKEAHKVLGNR [C15K]	3.47
VKKSCWTEEEDRIICEAHKVMGNR [L21M]	3.79
VKKSCWTEEEDRIICEAHKVEGNR [L21E]	3.83
VKKSCWTEEEDRIICEAHKVGGNR [L21G]	3.44
VKKSCWTEEEDRIICEAHKVIGNR [L21I]	3.15
VKKSCWTEEEDRIICEAHKVHGNR [L21H]	3.53
VKKSCWTEEEDRIICEAHKVAGNR [L21A]	3.42

Variant	protein stability index
VKKSCWTEEEDRIICEAHKVDGNR [L21D]	4.36
VKKSCWTEEEDRIICEAHKVFGNR [L21F]	2.94
VKKSCWTEEEDRIICEAHKVCGNR [L21C]	3.66
VKKSCWTEEEDRIICEAHKVKGNR [L21K]	3.26
VKKSCWTEEEDEIICEAHKVLGNR [R12E]	3.48
VKKSCWTEEEDYIICEAHKVLGNR [R12Y]	3.16
VKKSCWTEEEDTIICEAHKVLGNR [R12T]	3.2
VKKSCWTEEEDKIICEAHKVLGNR [R12K]	4.05
VKKSCWTEEEDWIICEAHKVLGNR [R12W]	2.22
VKKSCWTEEEDGIICEAHKVLGNR [R12G]	3.58
VKKSCWTEEEDIIICEAHKVLGNR [R12I]	3.38
VKKSCWTEEEDVIICEAHKVLGNR [R12V]	3.28
VKKSCWTEEEDNIICEAHKVLGNR [R12N]	3.7
VKKSCWTEEEDQIICEAHKVLGNR [R12Q]	3.62
VKKSCWTEEEDDIICEAHKVLGNR [R12D]	3.15
VKKSCWTEEEDPIICEAHKVLGNR [R12P]	3.38
VKKSCWTEEEDCIICEAHKVLGNR [R12C]	2.17
VKKSCWTEEEDAIICEAHKVLGNR [R12A]	3.29
VKKSCWTEEEDFIICEAHKVLGNR [R12F]	3.1
VKKSCWTEEEDLIICEAHKVLGNR [R12L]	2.87
VKKSCWTEEEDHIICEAHKVLGNR [R12H]	3.55
VKKSCWTEEEDSIICEAHKVLGNR [R12S]	3.25
VKKSCWTEEEDRIICEAHGVLGNR [K19G]	3.67
VKKSCWTEEEDRIICEAHYVLGNR [K19Y]	2.59

Variant	protein stability index
VKKSCWTEEEDRIICEAHPVLGNR [K19P]	3.28
VKKSCWTEEEDRIICEAHEVLGNR [K19E]	4.27
VKKSCWTEEEDRIICEAHWVLGNR [K19W]	1.91
VKKSCWTEEEDRIICEAHCVLGNR [K19C]	3.3
VKKSCWTEEEDRIICEAHNVLGNR [K19N]	3.41
VKKSCWTEEEDRIICEAHQVLGNR [K19Q]	4.09
VKKSCWTEEEDRIICEAHDVLGNR [K19D]	3.86
VKKSCWTEEEDRIICEAHLVLGNR [K19L]	2.69
VKKSCWTEEEDRIICEAHTVLGNR [K19T]	3.44
VKKSCWTEEEDRIICEAHVVLGNR [K19V]	3.5
VKKSCWTEEEDRIICEAHFVLGNR [K19F]	2.19
VKKSCWTEEEDRIICEAHIVLGNR [K19I]	2.03
VKKSCWTEEEDRIICEAHAVLGNR [K19A]	3.21
VKKSCWTEEEDRIICEAHMVLGNR [K19M]	2.93
VKKSCWTEEEDRIICEAHHVLGNR [K19H]	2.99
VKKSCWTEEEDRIICEAHRVLGNR [K19R]	3.23
VKKSCWTEEEDRIICEAHSVLGNR [K19S]	4.02
VKKSCWTEEEDRGICEAHKVLGNR [I13G]	4.41
VKKSCWTEEEDRCICEAHKVLGNR [I13C]	2.77
VKKSCWTEEEDRTICEAHKVLGNR [I13T]	3.74
VKKSCWTEEEDRPICEAHKVLGNR [I13P]	3.85
VKKSCWTEEEDRWICEAHKVLGNR [I13W]	2.47
VKKSCWTEEEDRAICEAHKVLGNR [I13A]	4.41
VKKSCWTEEEDRLICEAHKVLGNR [I13L]	3.06

Variant	protein stability index
VKKSCWTEEEDRNICEAHKVLGNR [I13N]	3.46
VKKSCWTEEEDRKICEAHKVLGNR [I13K]	3.82
VKKSCWTEEEDRVICEAHKVLGNR [I13V]	4.55
VKKSCWTEEEDRHICEAHKVLGNR [I13H]	3.29
VKKSCWTEEEDRFICEAHKVLGNR [I13F]	3
VKKSCWTEEEDRMICEAHKVLGNR [I13M]	3.67
VKKSCWTEEEDRYICEAHKVLGNR [I13Y]	3.01
VKKSCWTEEEDRSICEAHKVLGNR [I13S]	4.32
VKKSCWTEEEDRRICEAHKVLGNR [I13R]	3.19
VKKSCWTEEEDRQICEAHKVLGNR [I13Q]	4.24
VKKSCWTEEEDRDICEAHKVLGNR [I13D]	4.37
VKKSCWTEEEDREICEAHKVLGNR [I13E]	3.5
VKKSCWTEEEYRIICEAHKVLGNR [D11Y]	2.38
VKKSCWTEEEWRIICEAHKVLGNR [D11W]	2.42
VKKSCWTEEERRIICEAHKVLGNR [D11R]	2.85
VKKSCWTEEETRIICEAHKVLGNR [D11T]	2.83
VKKSCWTEEEVRIICEAHKVLGNR [D11V]	3.39
VKKSCWTEEEQRIICEAHKVLGNR [D11Q]	3
VKKSCWTEEEPRIICEAHKVLGNR [D11P]	2.76
VKKSCWTEEESRIICEAHKVLGNR [D11S]	2.8
